Experimental findings from the supplement of paper PMC12042874 are described below.

± gives the uncertainty stated by the source.

The data set can be described thus: amyloid nucleation score (Sup35N fusion, yeast selection) (log enrichment); library NNK2; higher = more nucleation; inactive = no reads after selection. The method, boiled down: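 Nucleation score is defined as the DiMSum log enrichment of output over input reads, with centring on the mode score of non-aggregating sequences. A minimum of 100 input reads was required for each sequence. Reads came from Illumina sequencing of plasmid inserts from psi-negative yeast expressing Sup35N fused to peptides of 20 random codons, induced with 100 μM copper sulfate for 24 hours and grown 7 days at 30°C on medium lacking adenine and uracil.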
The substance SQIRFWSRPRDCFGFLMRYV yielded an amyloid nucleation score of -0.852 ± 1. With SQLVMHYKQVC the figure was 1.82 ± 0.14; with SQSKNDQ, 0.257 ± 0.34.

The substance SRAGECSSWGHIYGLCVDLR returned an amyloid nucleation score of -0.897 ± 0.55. For SRAKNLHSFKSNMCDAFSYN, the amyloid nucleation score entry is “inactive”. With SRFLFCVPHVDCWLLTWNLS the figure was 6.68 ± 0.073; with SRFLLKDKSNTSGVMQLGMW, -0.374 ± 0.41. Then SRFYILRL, with 2.25 ± 0.098; and SRGWTRMRSYVVSSDFILLK, with 0.178 ± 0.48; and SRHKFRSITFIEIHPMI, with 0.012 ± 0.43. On to SRHRLAMRTAGTRVVSCWG, for which the amyloid nucleation score was found to be 0.285 ± 0.3.

As to SRIEHMACLRRP, the amyloid nucleation score turned out to be 0.496 ± 0.66. The substance SRIIMSFTSGLCDNHSKLKC yielded an amyloid nucleation score of 1.68 ± 0.19. Then SRKSFLLCILLCSITLPLAR, with -1.09 ± 0.44; and SRNTVLYISLSFLTPYISCC, with 8.221 ± 0.028. With SRTSSKAYTPYFVSRGHDRY the figure was -0.903 ± 0.76; with SRVGFFS, 0.072 ± 1.1; with SRVIWHDSQLFVVFSSTAYK, 4.04 ± 0.041. SRVSLYQML registered an amyloid nucleation score of -1.01 ± 0.34. As to SRYACVRLICQVWPLWVGSG, the amyloid nucleation score is 0.875 ± 0.43. With SRYGWMNRWKQPVQVVNPGF the figure was 0.031 ± 0.38; with SRYIM, -1.06 ± 1.1; with SRYLSVIYYHRSNTWLRDRE, “inactive”.

SSCLIG yielded an amyloid nucleation score of 0.28 ± 0.43.

SSFFLGLPPIREIGPWTTQR gave an amyloid nucleation score of 0.168 ± 0.27. Regarding SSFFPRQ, the amyloid nucleation score is -0.767 ± 0.76. Then SSGRGIRLTLTVSIDRKKMG, with -0.391 ± 0.4. With SSIGKGFSNSYGHAYCKHTW the figure was -0.124 ± 0.76. On to SSIKSSKIGAGGSL, for which the amyloid nucleation score is -0.213 ± 0.79. Then SSKFTHDYGGEDIVIDQDES, with 0.14 ± 0.53; and SSKYYA, with -0.131 ± 0.32; and SSLCIRSAL, with -0.092 ± 0.63. SSLDRKAVLAILSSTYLLRL showed an amyloid nucleation score of 2.33 ± 0.23.

For SSLGA, the amyloid nucleation score was -0.059 ± 0.5.

Substance SSMLPYSRHTIRVTKVRPPF returned an amyloid nucleation score of 0.561 ± 0.62. For the substance SSMLYTYVRLMNMNNIYVAS, the amyloid nucleation score was 0.737 ± 0.62.

Substance SSNFRLSLWYSKMM gave an amyloid nucleation score of -0.246 ± 0.36. As for SSNHTPTVVMHDHIPVLNFR, the amyloid nucleation score was -0.628 ± 0.63.

In the case of SSNSEDDGNWMMLLSNKYRI, the amyloid nucleation score is 0.559 ± 0.27. Then SSPHWSK, with -0.051 ± 0.37; and SSRRGNDGWRCGPSCGGCTG, with 3.65 ± 0.082; and SSSAIHLRFNYCYHCFHSLT, with 5.08 ± 0.065. SSSDFEFSHVIKGAIFRLFT returned an amyloid nucleation score of -1.2 ± 1. Then SSSEVSFSCYVVDVQLS, with -0.603 ± 0.49.

The substance SSSLLRSHRVGYVNLVVRED came in with an amyloid nucleation score of -0.524 ± 0.55. SSSREALCRKHDGVL registered an amyloid nucleation score of 0.905 ± 0.45. In turn, SSSTFCCLWTFDTRVQFLVN showed an amyloid nucleation score of 7.39 ± 0.079. With SSSVDRTVHPLCYGFSLRRD, the amyloid nucleation score was -0.168 ± 0.28. As to SSTKIFHLL, the amyloid nucleation score result is “inactive”. SSTPMCVPMYCS: the amyloid nucleation score entry was “inactive”. Regarding SSTVAGAIIE, the amyloid nucleation score turned out to be 0.575 ± 0.18. With SSVAKVRGSVLYMGRSGWVG the figure was 0.138 ± 0.8.

The substance SSVQNCSVCVGGPMYREFSW came in with an amyloid nucleation score of 4.994 ± 0.042. With SSWLYGVYSSYMWMLF the figure was -1.45 ± 1; with SSYGWVMLMEDFW, -1.23 ± 0.62; with SSYTMEPPHVRA, 0.155 ± 1.1. As to STDAILAGKFCSGH, the amyloid nucleation score was -0.943 ± 0.55. In turn, STFFKLD came in with an amyloid nucleation score of -1.88 ± 1.1. Substance STFIMCDRTDPASIAIA returned an amyloid nucleation score of 0.6 ± 0.64. With STFLKATYRSHRRHW the figure was 0.962 ± 0.39. With STGSNFDESSKQCFAFICKK the entry was “inactive”. Then STIQGIKNRSYRHSSANRVN, with 0.333 ± 0.61; and STLKPVNPGKVRH, with 0.445 ± 0.57; and STLTFIVSSSDEGWSHYREA, with 3.79 ± 0.07. STMRSWAAC: the amyloid nucleation score amounted to 4.25 ± 0.091. For STMWTIGSWLKAGALSFGFL, the amyloid nucleation score was -0.441 ± 0.36. With STNSDFLYQKNLPMVSSGNI the figure was -0.408 ± 0.79. Then STPHFH, with -0.146 ± 1; and STRNSFPSDKAYLS, with -0.605 ± 0.74; and STSGVKAVQISLSSVPWRWD, with 2.34 ± 0.13. Consider STVFRQSLE, for which the amyloid nucleation score stood at 0.269 ± 0.22. Then STVTVGHNSHVCAFIF, with -0.326 ± 0.54.

Substance STVYIVCHGVILRVRMGPWL showed an amyloid nucleation score of 2.46 ± 0.12. With STWCRMANYLITCFVTKSRV the figure was -1.33 ± 1.1; with STWDESWLHVLRWREFATLQ, 1.11 ± 0.22.

With STWKNDHTHSCASWAKVCIT, the amyloid nucleation score is -0.138 ± 0.34. In turn, STWPCNQPSYVSV displayed an amyloid nucleation score of 0.204 ± 0.28.

SVAASGFHVV: the amyloid nucleation score is -1.57 ± 0.76. With SVADGAHFCYYNLYFGGFVY, the amyloid nucleation score was determined as 4.24 ± 0.081. As to SVDIHGTFWHILYSIAPDQV, the amyloid nucleation score was found to be 1.75 ± 0.23. In turn, SVFSYQYETKVGSQNLLEYI came in with an amyloid nucleation score of -0.751 ± 1.1. With SVFVCTDIFK the figure was 0.702 ± 0.52. Then SVGRTESAQYRKTV, with 0.568 ± 0.44. With SVIHREIELVFILI the figure was 4.4 ± 0.087; with SVIITIGLSIKSALRFRRFQ, 4.57 ± 0.058. Substance SVIRMLYD returned an amyloid nucleation score of -0.113 ± 0.45. For SVKCWRWFGA, the amyloid nucleation score was determined as 1.73 ± 0.27. With SVKCWVALAPYLGDRKDPVW the figure was 2.94 ± 0.15; with SVLER, -0.147 ± 1.1; with SVLLRDMGILYVMRNYYWPL, -0.033 ± 0.76. With SVLLWWTHMYGLRMMKGVWG the figure was 0.433 ± 0.15; with SVLQAYFRTWSQWIRYTCAG, -0.141 ± 0.31. With SVLSFMRYLCGWQA the figure was 6.513 ± 0.053; with SVLTIRLKMQGHWLPGAAGC, 3.66 ± 0.15.

In turn, SVMSRNGNYVIVLGQCNCYM came in with an amyloid nucleation score of 8.509 ± 0.022. With SVNILDTWDKVAPTKRPLES the figure was 0.266 ± 0.49; with SVRPRPD, 0.617 ± 0.23. Then SVSYSGDNH, with -0.177 ± 1. With SVTCSSRCVSQRRFLVGPWN the figure was -1.35 ± 0.41. Turning to SVVLCTAFVQPC, the amyloid nucleation score amounted to 0.158 ± 0.45. With SVWGKD the figure was 0.073 ± 0.63; with SVYANILFNKACMRFNVVNG, 0.23 ± 0.21.

The substance SWFRMSVWSSLRAHMNASNT displayed an amyloid nucleation score of -0.198 ± 0.28. With SWHQKSELKTCWSLAIQYHT the figure was -0.191 ± 0.65; with SWKFNRASPSEMMCASNAWN, 0.404 ± 0.8.
